Consider two molecules from publication PMC11371640, “Structural deficits in key domains of Shank2 lead to alterations in postsynaptic nanoclusters and to a neurodevelopmental disorder in humans” (Molecular Psychiatry, 2022).

The target in this test is T1, GST fusion protein of the GKAP C-terminus (50 C-terminal residues), P97836-4.
T1 chain: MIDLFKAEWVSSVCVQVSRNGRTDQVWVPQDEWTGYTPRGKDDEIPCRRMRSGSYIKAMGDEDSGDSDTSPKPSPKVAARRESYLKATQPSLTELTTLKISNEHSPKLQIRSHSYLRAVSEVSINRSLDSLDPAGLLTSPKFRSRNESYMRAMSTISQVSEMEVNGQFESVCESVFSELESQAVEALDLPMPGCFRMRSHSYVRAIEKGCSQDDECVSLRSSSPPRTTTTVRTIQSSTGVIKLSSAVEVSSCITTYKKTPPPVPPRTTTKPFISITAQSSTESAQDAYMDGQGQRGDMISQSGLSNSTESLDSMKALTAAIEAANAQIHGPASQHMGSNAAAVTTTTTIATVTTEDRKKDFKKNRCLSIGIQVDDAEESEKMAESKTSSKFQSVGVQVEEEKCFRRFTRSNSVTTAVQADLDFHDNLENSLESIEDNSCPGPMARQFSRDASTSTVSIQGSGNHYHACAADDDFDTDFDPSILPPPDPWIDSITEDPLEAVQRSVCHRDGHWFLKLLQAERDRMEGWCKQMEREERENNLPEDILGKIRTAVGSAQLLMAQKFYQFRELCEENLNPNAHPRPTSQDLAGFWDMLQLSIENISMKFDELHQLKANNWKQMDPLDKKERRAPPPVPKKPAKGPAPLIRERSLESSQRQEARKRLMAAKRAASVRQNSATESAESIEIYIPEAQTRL
The experiment in a line: GST pulldown, Western blot quantification. The note with it: chain shown with the change; 293T cell lysates; four independent experiments; parent: est. 3.8; read off a plot. (Immunoblotting shows a protein as a band on a membrane.)

B1: mCherry-tagged human Shank2a (WT), Q9UPX8-3 S610Y (protein)
chain: MPRSPTSSEDEMAQSFSDYSVGSESDSSKEETIYDTIRATAEKPGGARTEESQGNTLVIRVVIHDLQQTKCIRFNPDATVWVAKQRILCTLTQSLKDVLNYGLFQPASNGRDGKFLDEERLLREYPQPVGEGVPSLEFRYKKRVYKQASLDEKQLAKLHTKTNLKKCMDHIQHRLVEKITKMLDRGLDPNFHDPETGETPLTLAAQLDDSVEVIKALKNGGAHLDFRAKDGMTALHKAARARNQVALKTLLELGASPDYKDSYGLTPLYHTAIVGGDPYCCELLLHEHATVCCKDENGWHEIHQACRYGHVQHLEHLLFYGADMSAQNASGNTALHICALYNQDSCARVLLFRGGNKELKNYNSQTPFQVAIIAGNFELAEYIKNHKETDIVPFREAPAYSNRRRRPPNTLAAPRVLLRSNSDNNLNASAPDWAVCSTATSHRSLSPQLLQQMPSKPEGAAKTIGSYVPGPRSRSPSLNRLGGAGEDGKRPQPLWHVGSPFALGANKDSLSAFEYPGPKRKLYSAVPGRLFVAVKPYQPQVDGEIPLHRGDRVKVLSIGEGGFWEGSARGHIGWFPAECVEEVQCKPRDSQAETRADRSKKLFRHYTVGYYDSFDTSSDCIIEEKTVVLQKKDNEGFGFVLRGAKADTPIEEFTPTPAFPALQYLESVDEGGVAWQAGLRTGDFLIEVNNENVVKVGHRQVVNMIRQGGNHLVLKVVTVTRNLDPDDTARKKAPPPPKRAPTTALTLRSKSMTSELEELVDKASVRKKKDKPEEIVPASKPSRAAENMAVEPRVATIKQRPSSRCFPAGSDMNSVYERQGIAVMTPTVPGSPKAPFLGIPRGTMRRQKSIDSRIFLSGITEEERQFLAPPMLKFTRSLSMPDTSEDIPPPPQSVPPSPPPPSPTTYNCPKSPTPRVYGTIKPAFNQNSAAKVSPATRSDTVATMMREKGMYFRRELDRYSLDSEDLYSRNAGPQANFRNKRGQMPENPYSEVGKIASKAVYVPAKPARRKGMLVKQSNVEDSPEKTCSIPIPTIIVKEPSTSSSGKSSQGSSMEIDPQAPEPPSQLRPDESLTVSSPFAAAIAGAVRDREKRLEARRNSPAFLSTDLGDEDVGLGPPAPRTRPSMFPEEGDFADEDSAEQLSSPMPSATPREPENHFVGGAEASAPGEAGRPLNSTSKAQGPESSPAVPSASSGTAGPGNYVHPLTGRLLDPSSPLALALSARDRAMKESQQGPKGEAPKADLNKPLYIDTKMRPSLDAGFPTVTRQNTRGPLRRQETENKYETDLGRDRKGDDKKNMLIDIMDTSQQKSAGLLMVHTVDATKLDNALQEEDEKAEVEMKPDSSPSEVPEGVSETEGALQISAAPEPTTVPGRTIVAVGSMEEAVILPFRIPPPPLASVDLDEDFIFTEPLPPPLEFANSFDIPDDRAASVPALSDLVKQKKSDTPQSPSLNSSQPTNSADSKKPASLSNCLPASFLPPPESFDAVADSGIEEVDSRSSSDHHLETTSTISTVSSISTLSSEGGENVDTCTVYADGQAFMVDKPPVPPKPKMKPIIHKSNALYQDALVEEDVDSFVIPPPAPPPPPGSAQPGMAKVLQPRTSKLWGDVTEIKSPILSGPKANVISELNSILQQMNREKLAKPGEGLDSPMGAKSASLAPRSPEIMSTISGTRSTTVTFTVRPGTSQPITLQSRPPDYESRTSGTRRAPSPVVSPTEMNKETLPAPLSAATASPSPALSDVFSLPSQPPSGDLFGLNPAGRSRSPSPSILQQPISNKPFTTKPVHLWTKPDVADWLESLNLGEHKEAFMDNEIDGSHLPNLQKEDLIDLGVTRVGHRMNIERALKQLLDR
On to B1, for which the response (Precipitate / Input) came out at 2.4.

B2: mCherry-tagged human Shank2a (WT), Q9UPX8-3 N690S (protein)
chain: MPRSPTSSEDEMAQSFSDYSVGSESDSSKEETIYDTIRATAEKPGGARTEESQGNTLVIRVVIHDLQQTKCIRFNPDATVWVAKQRILCTLTQSLKDVLNYGLFQPASNGRDGKFLDEERLLREYPQPVGEGVPSLEFRYKKRVYKQASLDEKQLAKLHTKTNLKKCMDHIQHRLVEKITKMLDRGLDPNFHDPETGETPLTLAAQLDDSVEVIKALKNGGAHLDFRAKDGMTALHKAARARNQVALKTLLELGASPDYKDSYGLTPLYHTAIVGGDPYCCELLLHEHATVCCKDENGWHEIHQACRYGHVQHLEHLLFYGADMSAQNASGNTALHICALYNQDSCARVLLFRGGNKELKNYNSQTPFQVAIIAGNFELAEYIKNHKETDIVPFREAPAYSNRRRRPPNTLAAPRVLLRSNSDNNLNASAPDWAVCSTATSHRSLSPQLLQQMPSKPEGAAKTIGSYVPGPRSRSPSLNRLGGAGEDGKRPQPLWHVGSPFALGANKDSLSAFEYPGPKRKLYSAVPGRLFVAVKPYQPQVDGEIPLHRGDRVKVLSIGEGGFWEGSARGHIGWFPAECVEEVQCKPRDSQAETRADRSKKLFRHYTVGSYDSFDTSSDCIIEEKTVVLQKKDNEGFGFVLRGAKADTPIEEFTPTPAFPALQYLESVDEGGVAWQAGLRTGDFLIEVNSENVVKVGHRQVVNMIRQGGNHLVLKVVTVTRNLDPDDTARKKAPPPPKRAPTTALTLRSKSMTSELEELVDKASVRKKKDKPEEIVPASKPSRAAENMAVEPRVATIKQRPSSRCFPAGSDMNSVYERQGIAVMTPTVPGSPKAPFLGIPRGTMRRQKSIDSRIFLSGITEEERQFLAPPMLKFTRSLSMPDTSEDIPPPPQSVPPSPPPPSPTTYNCPKSPTPRVYGTIKPAFNQNSAAKVSPATRSDTVATMMREKGMYFRRELDRYSLDSEDLYSRNAGPQANFRNKRGQMPENPYSEVGKIASKAVYVPAKPARRKGMLVKQSNVEDSPEKTCSIPIPTIIVKEPSTSSSGKSSQGSSMEIDPQAPEPPSQLRPDESLTVSSPFAAAIAGAVRDREKRLEARRNSPAFLSTDLGDEDVGLGPPAPRTRPSMFPEEGDFADEDSAEQLSSPMPSATPREPENHFVGGAEASAPGEAGRPLNSTSKAQGPESSPAVPSASSGTAGPGNYVHPLTGRLLDPSSPLALALSARDRAMKESQQGPKGEAPKADLNKPLYIDTKMRPSLDAGFPTVTRQNTRGPLRRQETENKYETDLGRDRKGDDKKNMLIDIMDTSQQKSAGLLMVHTVDATKLDNALQEEDEKAEVEMKPDSSPSEVPEGVSETEGALQISAAPEPTTVPGRTIVAVGSMEEAVILPFRIPPPPLASVDLDEDFIFTEPLPPPLEFANSFDIPDDRAASVPALSDLVKQKKSDTPQSPSLNSSQPTNSADSKKPASLSNCLPASFLPPPESFDAVADSGIEEVDSRSSSDHHLETTSTISTVSSISTLSSEGGENVDTCTVYADGQAFMVDKPPVPPKPKMKPIIHKSNALYQDALVEEDVDSFVIPPPAPPPPPGSAQPGMAKVLQPRTSKLWGDVTEIKSPILSGPKANVISELNSILQQMNREKLAKPGEGLDSPMGAKSASLAPRSPEIMSTISGTRSTTVTFTVRPGTSQPITLQSRPPDYESRTSGTRRAPSPVVSPTEMNKETLPAPLSAATASPSPALSDVFSLPSQPPSGDLFGLNPAGRSRSPSPSILQQPISNKPFTTKPVHLWTKPDVADWLESLNLGEHKEAFMDNEIDGSHLPNLQKEDLIDLGVTRVGHRMNIERALKQLLDR
B2: the response (Precipitate / Input) was determined as 2.8.
